Our source for the activity and EC50 values is patent publication US20250346877, “[…] MEGANUCLEASES HAVING […] FOR A RECOGNITION SEQUENCE IN THE […] B VIRUS GENOME” (Precision BioSciences, Inc., published 2025).

Residue numbers refer to the chain shown, from its start. A value given as a limit tells only on which side of the number the result lay.

Data set [1] deals with T1, HBV 11-12L.1090QE Linker1923(1/2) meganuclease (synthetic (I-CreI derived)).
T1 sequence: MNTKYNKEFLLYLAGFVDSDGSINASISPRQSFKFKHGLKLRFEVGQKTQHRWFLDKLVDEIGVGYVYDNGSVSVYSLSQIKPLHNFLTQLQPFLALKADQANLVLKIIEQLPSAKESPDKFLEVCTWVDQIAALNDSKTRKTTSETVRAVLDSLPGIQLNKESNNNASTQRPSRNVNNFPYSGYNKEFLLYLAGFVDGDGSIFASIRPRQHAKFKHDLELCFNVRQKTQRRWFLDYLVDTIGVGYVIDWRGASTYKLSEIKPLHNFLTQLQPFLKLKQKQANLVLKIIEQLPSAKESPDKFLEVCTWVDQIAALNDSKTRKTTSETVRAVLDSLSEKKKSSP
Nature of the data set: cell_activity. The note with it: off-target, HepG2-sAg, 100 ng mRNA, below LOD; 0.2% in naive PHH at 500 ng.

Data set [2] deals with T2, HBV 11-12L.1090QQ Linker1 meganuclease (synthetic (I-CreI derived, Chlamydomonas reinhardtii)).
T2 sequence: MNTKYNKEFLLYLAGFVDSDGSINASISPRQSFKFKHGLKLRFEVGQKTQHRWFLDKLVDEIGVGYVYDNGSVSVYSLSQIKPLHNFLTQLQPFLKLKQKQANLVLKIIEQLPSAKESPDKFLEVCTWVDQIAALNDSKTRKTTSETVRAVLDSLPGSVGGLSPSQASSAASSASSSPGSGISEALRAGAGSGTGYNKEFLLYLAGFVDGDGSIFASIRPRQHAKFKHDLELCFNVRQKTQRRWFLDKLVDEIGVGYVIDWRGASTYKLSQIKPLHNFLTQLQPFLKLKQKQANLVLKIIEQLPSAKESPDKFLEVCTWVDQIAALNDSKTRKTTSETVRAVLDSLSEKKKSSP
The data set is described as follows: cell_activity. As to conditions: off-target, HepG2-sAg, 100 ng mRNA; on-target about 60%.

In data set [3] the test system is T3, HBV 11-12L.1090QQ Linker1923(1/2) meganuclease (synthetic (I-CreI derived)).
T3 sequence: T1 sequence with E260Q
Nature of the data set: cell_activity. As to conditions: off-target, HepG2-sAg, 100 ng mRNA; on-target about 60%.

The target of data set [4] is T4, HBV 11-12L.1090QQ Linker1923(1/2) meganuclease (synthetic (I-CreI derived)).
T4 chain: T1 sequence with E260Q
The data set is described as follows: cell_activity; indel formation in HepG2-sAg, day 2; EC90 4.93 ng. The note with it: tags: SV40 NLS (N- and C-terminal in pRNA8), mRNA-delivered.

Data set [5] has as its target T5, HBV 11-12L.1090QE Linker1923(1/2) meganuclease (synthetic (I-CreI derived)).
T5 chain: T1 sequence
Nature of the data set: cell_activity; indel formation in HepG2-sAg, day 2; EC90 23.93 ng. As to conditions: tags: SV40 NLS (N- and C-terminal in pRNA8), mRNA-delivered.

As to top off-target site Chr17:17242769, the activity is < 0.2 % editing in data set [1], 0.5 % editing in data set [2] and 2 % editing in data set [3].

B1: HBV 11-12 recognition sequence (dsDNA)
DNA 1: TGCCGATCCATACTGCGGAACT
DNA 2: AGTTCCGCAGTATGGATCGGCA
For the molecule B1, the figures for the EC50 in data set [4] and in data set [5] were 0.26 ng mRNA and 2.3 ng mRNA, respectively.
